Article PMC7367873, “Dissecting the sequence determinants for dephosphorylation by the catalytic subunits of phosphatases PP1 and PP2A” (Nature Communications, 2020)

Assays:
GFP-14-3-3β = GFP-14-3-3β co-IP with LC-MS/MS, untreated GFP-14-3-3β versus GFP control (14-3-3 interactome); format: binding, human; details: log2 difference; pairwise comparison untreated vs GFP, label-free quantification, 3 replicates each
[1] = system: GFP-14-3-3β and its binding proteins; experiment: GFP-14-3-3β co-IP with LC-MS/MS label-free quantification, untreated versus PP1c-treated; parameters: species or system human; details: log2 difference; pairwise comparison PP1 vs untreated, label-free quantification, 3 replicates each

| Molecule | Difference (log2), untreated vs GFP (GFP-14-3-3β) | Difference (log2), PP1 vs untreated [1] |
| --- | --- | --- |
| SLC43A3 (protein, UniProt Q8NBI5 1-491, looked up) Equilibrative nucleobase …: MAGQGLPLHVATLLTGLLECLGFAGVLFGWPSLVFVFKNEDYFKDLCGPDAGPIGNATGQADCKAQDERFSLIFTLGSFMNNFMTFPTGYIFDRFKTTVARLIAIFFYTTATLIIAFTSAGSAVLLFLAMPMLTIGGILFLITNLQIGNLFGQHRSTIITLYNGAFDSSSAVFLIIKLLYEKGISLRASFIFISVCSTWHVARTFLLMPRGHIPYPLPPNYSYGLCPGNGTTKEEKETAEHENRELQSKEFLSAKEETPGAGQKQELRSFWSYAFSRRFAWHLVWLSVIQLWHYLFIGTLNSLLTNMAGGDMARVSTYTNAFAFTQFGVLCAPWNGLLMDRLKQKYQKEARKTGSSTLAVALCSTVPSLALTSLLCLGFALCASVPILPLQYLTFILQVISRSFLYGSNAAFLTLAFPSEHFGKLFGLVMALSAVVSLLQFPIFTLIKGSLQNDPFYVNVMFMLAILLTFFHPFLVYRECRTWKESPSAIA | -0.216 | 1.303 |
| MAP7 (protein, UniProt Q14244 2-749, looked up) Ensconsin: AELGAGGDGHRGGDGAVRSETAPDSYKVQDKKNASSRPASAISGQNNNHSGNKPDPPPVLRVDDRQRLARERREEREKQLAAREIVWLEREERARQHYEKHLEERKKRLEEQRQKEERRRAAVEEKRRQRLEEDKERHEAVVRRTMERSQKPKQKHNRWSWGGSLHGSPSIHSADPDRRSVSTMNLSKYVDPVISKRLSSSSATLLNSPDRARRLQLSPWESSVVNRLLTPTHSFLARSKSTAALSGEAASCSPIIMPYKAAHSRNSMDRPKLFVTPPEGSSRRRIIHGTASYKKERERENVLFLTSGTRRAVSPSNPKARQPARSRLWLPSKSLPHLPGTPRPTSSLPPGSVKAAPAQVRPPSPGNIRPVKREVKVEPEKKDPEKEPQKVANEPSLKGRAPLVKVEEATVEERTPAEPEVGPAAPAMAPAPASAPAPASAPAPAPVPTPAMVSAPSSTVNASASVKTSAGTTDPEEATRLLAEKRRLAREQREKEERERREQEELERQKREELAQRVAEERTTRREEESRRLEAEQAREKEEQLQRQAEERALREREEAERAQRQKEEEARVREEAERVRQEREKHFQREEQERLERKKRLEEIMKRTRRTEATDKKTSDQRNGDIAKGALTGGTEVSALPCTTNAPGNGKPVGSPHVVTSHQSKVTVESTPDLEKQPNENGVSVQNENFEEIINLPIGSKPSRLDVTNSESPEIPLNPILAFDDEGTLGPLPQVDGVQTQQTAEVI | -0.1668 | 1.312 |
| STT3B (protein, UniProt Q8TCJ2 2-826, looked up) Dolichyl-diphosphooligosacchar …: AEPSAPESKHKSSLNSSPWSGLMALGNSRHGHHGPGAQCAHKAAGGAAPPKPAPAGLSGGLSQPAGWQSLLSFTILFLAWLAGFSSRLFAVIRFESIIHEFDPWFNYRSTHHLASHGFYEFLNWFDERAWYPLGRIVGGTVYPGLMITAGLIHWILNTLNITVHIRDVCVFLAPTFSGLTSISTFLLTRELWNQGAGLLAACFIAIVPGYISRSVAGSFDNEGIAIFALQFTYYLWVKSVKTGSVFWTMCCCLSYFYMVSAWGGYVFIINLIPLHVFVLLLMQRYSKRVYIAYSTFYIVGLILSMQIPFVGFQPIRTSEHMAAAGVFALLQAYAFLQYLRDRLTKQEFQTLFFLGVSLAAGAVFLSVIYLTYTGYIAPWSGRFYSLWDTGYAKIHIPIIASVSEHQPTTWVSFFFDLHILVCTFPAGLWFCIKNINDERVFVALYAISAVYFAGVMVRLMLTLTPVVCMLSAIAFSNVFEHYLGDDMKRENPPVEDSSDEDDKRNQGNLYDKAGKVRKHATEQEKTEEGLGPNIKSIVTMLMLMLLMMFAVHCTWVTSNAYSSPSVVLASYNHDGTRNILDDFREAYFWLRQNTDEHARVMSWWDYGYQIAGMANRTTLVDNNTWNNSHIALVGKAMSSNETAAYKIMRTLDVDYVLVIFGGVIGYSGDDINKFLWMVRIAEGEHPKDIRESDYFTPQGEFRVDKAGSPTLLNCLMYKMSYYRFGEMQLDFRTPPGFDRTRNAEIGNKDIKFKHLEEAFTSEHWLVRIYKVKAPDNRETLDHKPRVTNIFPKQKYLSKKTTKRKRGYIKNKLVFKKGKKISKKTV | -0.7683 | 1.284 |
